Experimental data reported in the nanobody polyreactivity screen of Harvey et al. (2022).

Assay: yeast display, Sf9 membrane polyspecificity reagent, FACS + sequencing; frameworks hold sequencing errors
Summary of the method: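 A nanobody's polyreactivity label depends on the gate it was sorted from. Yeast display cells were stained with 10% biotinylated, detergent-solubilized Sf9 membrane reagent for 1 hour at 4 °C, enriched on streptavidin microbeads and sorted by FACS. The low and high (top ~1%) gates were set on anti-HA fluorescence for expression and streptavidin fluorescence for reagent binding.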
In the case of “QVQLVESGGGLVQAGGSLRLSCAASGSTFDINAMGWYRQAPGKERELVAAINWSGDSTYYADSVKGRFTISRDTAKNTVYLQMNSLKPEDTAVYYCNADTIVAWFDIFEEMDSWGQGTQVTVSS”, the “polyreactivity (PSR sort gate)” value is reported as “low polyreactivity”.
For “QVQLVDSGGGLVQAGGSLRLSCAASGRTFRYYAMGSYRQAPGKERELVAAISGRGGSTYYADSVKGRFTISRDNAKNTVYLLMNSLKPADTAVYYCAKRGYYRSRRYDYWGQGTQVTVSS”, the “polyreactivity (PSR sort gate)” value was “high polyreactivity”.
In the case of “QVQLVESGGGLVQAGGSLRLSCAASGIIFAANAMGWYRQAPGKERELVAAISKNGGITYYADSVKGRFTISRDNAKNTVYLQMNSLKPEDTAVYYCAAKLSRRYYYWGQGTQVTVSS”, the “polyreactivity (PSR sort gate)” value is reported as “high polyreactivity”.
For “QVQLVESGGGLVQAGGSLRLSCASSGFIFPLYAMGWYRKAPGKERELVAAITWRGDTTSYADSVKGRFTISRDNAKNTVYLLMIRLKPEDNAVYYCNARGYFGWYAMDYWGQGTQVTVSS”, the “polyreactivity (PSR sort gate)” value was “high polyreactivity”.
For “QVQHEKSRGALVQAGGSLRLSCAASGSTVEKYTMGWYREAPGKVRELVAAISKSGGSTYYADSVKGRFTISRDNAMNTVYLQMNSLNPEDTAVDYCAALQYPRAGFDYWGQGTQVTVSS”, the “polyreactivity (PSR sort gate)” value was “high polyreactivity”.
With “QVQLVESGGGLVQAGGSLRLSCAASGNIFKSYTMGWYRQAPGKERELVAAITSGGRTNYADSVKGRFTISRDNAKNTVYLQMNSLKPEDTAVYYCAAKHFRWGTGDYWGQGTQVTVSS” the “polyreactivity (PSR sort gate)” value was “high polyreactivity”.
For “QEQLVESGGGLVQAGGSLRLSCAASGGTFGSNTRGWYRQAPGKERELVAAITSGVSTNYADSVKGRFTISRDNAKITVYLQMNRLKPEDTAVYYCAKELWSEEYETIITYYGFDYLGQGTQVTVSS”, the “polyreactivity (PSR sort gate)” value was “low polyreactivity”.
With “QLQLVESGGGLGQSGGSIRLSCAASGFIFPVYTMGRSRQAPGKERELVAAITQIGGSTHYADSVKGRFTISRDNAKNTVYLQMNSLKPEDTAVYYCNAVPSYGTEYDYWGQGTQVTVSS” the “polyreactivity (PSR sort gate)” value was “low polyreactivity”.
With “QVQLVESGGGKVQAVGSLRLSCAASGRTFYPYAMGWYRQAPGKERELVAVITWSTGNTYYADSVKGRFTISRDNAKNTVYLQMNSLKPEDTAVYYCAAAYYRYRGTIRYYYWGQGTQVTVSS” the “polyreactivity (PSR sort gate)” value was “high polyreactivity”.
In the case of “QVQLVESGGGLVQAGGSLRLSCAASGLIFLRNAMGWYRQAPGKERELVAAISRSGGSTYYADSVKGRFTISRDYAKNTVYLQMNSLKPDDTAVYYCAKYGYGGVIPGPDHYDYWGQGTQVTVSS”, the “polyreactivity (PSR sort gate)” value is reported as “high polyreactivity”.
With “QVHLVESGGGLVQAGGRLRLSCAASGSIFFRYAMGWYRQAPGKERELVAAINSRGGRTYYADSVKGRFTISRDNAKNTVYLQMNSLKPEDTAVYYCAAKGYWAKGGKTYGGYDYWGQGTQVTGSS” the “polyreactivity (PSR sort gate)” value was “high polyreactivity”.
For “QVQLVESGGCLVQAGGSLRLSCAASGLIFYRYAMGWYRQAPGKERELVAAISWSGGTTYYADSVKGRFTISRDNAKNSVYLQMNSLKPEDTAVYYCAADAVYYHFDYWGQGTQVTVSS”, the “polyreactivity (PSR sort gate)” value was “high polyreactivity”.
With “QVQLVESGGGLVQAGGSLRLSCAASGFIFASNAMGWYRQEPGKERELVASITIGDSTYYADSVKGRFTISRDNAKNTVYLQMNSLKPEDTAVYYCAAVKTVDVGYDYWGQGTQVTVSS” the “polyreactivity (PSR sort gate)” value was “low polyreactivity”.
For “QVQLVESGGCLVQAGGSLRLSCAASGFTFHNNVMGWYRQAPGKDRELVATISKSGGSTYYADSEKGRFTISRDNAKNTVYLQMNSLKPEDTAVYYCDRRYRYYGRYGYWGQGTQVTVSS”, the “polyreactivity (PSR sort gate)” value was “high polyreactivity”.
For “LVQLVESGGGLVQAGGSLRLSCAASGFIFGYYAMGWYRQAPGKERELVAASTRSGGSTRYADSVKGRFTISRDKAKNTVYLQMNSLKPEDSAVYYCAADSCPINLYEDYWGQGTQVTVSS”, the “polyreactivity (PSR sort gate)” value was “high polyreactivity”.
In the case of “QVQLVESGGGLVQAGGSLRLSCAASGRIFYPYVMGWYRQAPGKERELVAAISDSTGSTYYADSVKGRFTISRDNAKNTVYLQMNSLKPEDTAVYYCAAGWFYATYWRFYYWGQGTQVTVSS”, the “polyreactivity (PSR sort gate)” value is reported as “low polyreactivity”.
With “QVQLVESGGGLVQAGGSLRLSCAASGFISSHYAMGWYRPAPGKEWEVVATISSGGSTYADSVKGRFTISRDNAKNTVYLQMNSLKPEDTAVYYCAKRYYKSLNRDEFDSWGQGTQVTVSS” the “polyreactivity (PSR sort gate)” value was “high polyreactivity”.
With “QVQLVESGGVLVQAGGSLRLSCAASGRIFWGYAMGWYRQAPGKERELVARLTSGGDTYYADSVKGRFTISRDNAKNTVDLQMNSLKPEDTAVYYCAKSTAVKPYAYRESGFIYDYRGQGTQVTVSS” the “polyreactivity (PSR sort gate)” value was “low polyreactivity”.
With “QVQLVDSGGGLVQAGASLRLSCAASGRTFYPYAMGWYRQAPAKERELDAAISSKGGITYYADSVKGRFTISRDNAKNTVYLQMNSLNPEDTAVYYCAALYTGESGYWGQGTQVSVSS” the “polyreactivity (PSR sort gate)” value was “high polyreactivity”.
For “QVQLVESGGGLVQAGGSLRLSCAASGSIFAGNTMGWSRQAPGKEREFVASIRSSSGSTYYADSVKGRFTISRDNAKNTVYLQMNSLKPEDTAVYYCARVAPASGVRWYYYWGQGTQVTVSS”, the “polyreactivity (PSR sort gate)” value was “high polyreactivity”.
In the case of “QVQLVESGGGLVQAGGSLRLSCAASGNTFYANTMGWYRQAPGKERELVAAITVRGASTNYADSVKGSFTISRDNAKNTVYLQMNSLKPEDTAVYYCNAVGLRSPWHQDYLIRYDYRGQGTQVTVSS”, the “polyreactivity (PSR sort gate)” value is reported as “low polyreactivity”.
For “QVQLVESGGGLVQAGGSLRLSCAASGSTFVINAMGWYRQAPGKEREFVAAISYSRGITYYADSVKGRFTISRDNAKNYVDLQMNSLKQEDTAVYYCAVSPFENRDSGYDYWGQCTQVTVSS”, the “polyreactivity (PSR sort gate)” value was “low polyreactivity”.
In the case of “QVQLQESGGGLVQAGGSLRLSCAASGYISHADEMGWYRQAPGKEHELVASISNGGSTNYADSVKGRFTISRDNAKNTVFLQMNSLKSEDTAVYYCAAWTGQVDIHYYWGQGTQVTVSS”, the “polyreactivity (PSR sort gate)” value is reported as “low polyreactivity”.
With “QVQLVESGGGLVQAGGSLSLSCAASGSTMATYTMGWYRQAPGKERELVAAISFGGSTYYADSVKGRFTISRDNAKNTVYLQMNSLKPEDTAVYYCAVYGDSYWGAYYYSDGYWGQGTQVTVSS” the “polyreactivity (PSR sort gate)” value was “low polyreactivity”.
For “QVQLVESGGRLVQAGGSLRLSCAASGRIFGAYAMGWYRQAPGKERELVAAINSGGSTFYADSVKGRFTISRDNAKNTVYLQMNRLKPEDTAVYYCAKRSYDYRRYSWGQGTQVTVSS”, the “polyreactivity (PSR sort gate)” value was “high polyreactivity”.
With “QVQLVESGGGLVQAGGSLRLSCAASGFTFFYNAMGWYRQAPGKEREFVAAISGRGGTTYYADSVKGRFTISRDNAKNTVYLQMNSLKPEDTAVYYCAAYYRGYAYNYWGQGTQVTLSS” the “polyreactivity (PSR sort gate)” value was “high polyreactivity”.
With “QVQLVESGGGLVQAGGSLRLSCAASGSTIPSYAMGWYRAAPGKERELVASITYSDGPTRYADSEKGRFTISRDNAKNTVFLQMNSLKPEDTAVYYCNAVYYREGMDYWGQGNQVTVSS” the “polyreactivity (PSR sort gate)” value was “low polyreactivity”.
In the case of “QVQLVESGGGLVQAGGSLRLSCAASGFIFRYYAMGWYRQAPGKERELVARITPRGGRTYYADSVKGRFTISRDNAKNTVYLQMNSLKPEDTAVYYCAAVYPVLDEFGYWGQGTQVTVSS”, the “polyreactivity (PSR sort gate)” value is reported as “high polyreactivity”.
In the case of “QVQLVESGGGLVQAGGSLRLSCAASGFTFRRYAMGWYRQAPGKERELVAAISYSGGSTNYADSVKGRFTISRDNAKNTVYLQMNSLKPEDTAVYYCATTSRAWGRGYDYWGQGTQVTVSS”, the “polyreactivity (PSR sort gate)” value is reported as “low polyreactivity”.
For “QVQLVESGGGLVQAGGSLRLSCAASGGIFTLNGMGWYRQAPGKERELVAVITSSGGSTYYADSVKGRFTISRDNAKNTVYLQMNSLKPEDTAVYYCAAQLVRYVGYYRFDYWGQGTQVTVSS”, the “polyreactivity (PSR sort gate)” value was “low polyreactivity”.
In the case of “QVQLVESGGGLVQAGGSLRLSCAASGRIFYKYAMGWYRQAPGKERELVAAISSGGNTNYADSVKGRFTISRDNAKNTVYLQMNSLKPEDTAVYYCNAKRAYYRGYYPDNYWGQGTQVTVSS”, the “polyreactivity (PSR sort gate)” value is reported as “high polyreactivity”.
In the case of “QVQLVESGGGLVQAGGSLRLSCAASGLIFYINAMGWYRQAPGKERELVASITRTGSTNYADSVKGRFTISRDNAKNTVYLQMNSLKAEDTAVYYCAAYGPVYPHEYDYWGQGTQVTVSS”, the “polyreactivity (PSR sort gate)” value is reported as “low polyreactivity”.
For “QVQLVESGGGLVQAGGSLRLSCAASGFTFSTYAMGWYRQAPGKESELVAAITRSGGSTYYADSVKGRFTISRDIEKNTVYLQMNSLKQEDTAVYYCATDASFYDPDLYPYGYDYWGQGTQVTVSS”, the “polyreactivity (PSR sort gate)” value was “high polyreactivity”.
For “QVQLVESGGGLVQAGGSLRLSCAASGGTFVSYALGWSRQAPGKERELVAAITYSGGSTYYADSVKGRFTISRDTAKNTVYLQMNSLKPEDTAVYYCAADLGRNLLHTYYYWGQGTQVTVSS”, the “polyreactivity (PSR sort gate)” value was “low polyreactivity”.
In the case of “QVQLVESGGGLVQAGGSLRLSCAASGRTFHGYAMGWYRQAPGKERELVARINWSDGRTYYADSVKGRFTISRDNAKNTVYLQMNSLKPEEPAVYYCAATRYYYYWYVYEDRGDFWGQGTQVTVSS”, the “polyreactivity (PSR sort gate)” value is reported as “low polyreactivity”.
For “QFQLVESGGGLDQAGGSLRLSCAATGSTFTSYAMGWYIQAPGKERELVAAITSRGGTYYADSVKGRFTISRDNAKNTVYLQMNSLKPEDTAVYYCAARATYKKYPYVKWYDYWGQGTQVTVSS”, the “polyreactivity (PSR sort gate)” value was “high polyreactivity”.
In the case of “QVQLVESGGGLVQAGGSLRLSCAASGSIFTSYGMGWYRQAPGKERELVAAITYSGDRTYYADSVKGRFTISRDNAKITVYFQMNSLIPEDTAVYYCNVAYVYGSFRRRPMGYWGQGTQVTVSS”, the “polyreactivity (PSR sort gate)” value is reported as “high polyreactivity”.
For “QVQLVESGGGLVQAGGRLRLSCAPSGSTFPPYAMGWYRQAPGKERELVADITRRGASTYYADSVKGRFTISRDNAKNTVYLQMNSLKPEDTAVYYCAARFYYQYYSGFDYWGQGTQVTVST”, the “polyreactivity (PSR sort gate)” value was “high polyreactivity”.
With “QVQLVESGGGLVQAGGSLRLSCAASGSTFYSYAMGWYRQAPGKEREFVAAITDSGGSTYYADSVTGRFTISRDNAKNTVYLQMNSLKPEDTAVYYCAKRQYQSYIRGPYYYWGQGTQVTVSS” the “polyreactivity (PSR sort gate)” value was “low polyreactivity”.
With “QVQLVESGGGLVQAGGSLRLSCAASGSIFGINVMGWYRQAPGKERELVAAITSGTSTYYADSVKGLFTISRDNANNTVYLQMNSLKPEDTAVYYCAALWSSRFVVHPQWYDYWGQGTQVTVSS” the “polyreactivity (PSR sort gate)” value was “low polyreactivity”.
For “QVQLVESGGGLVQAGGTLRLSCAASGFIISRNAMGWYRQAPRKERELVAAITWPGGTTYYADSVKGRFTISRDNAKNTVYLQMISLKPEDTAVYYSAADEYGPHTFSPEYDSWGQGTQVTVSS”, the “polyreactivity (PSR sort gate)” value was “low polyreactivity”.
In the case of “QVQLVESGGGLVQAGGSLRLSCAASGFTFRWYAMGWYRQAPGKERELVARIRGSGGNTYYADSVKGRFTISRDNAKNTVYLQMNSLKPEDTAVYYCAAMQSPTRSFIYRFDYWGQGTQVTVSS”, the “polyreactivity (PSR sort gate)” value is reported as “high polyreactivity”.
With “QVQLVESGGGLVQAGGSLRLSGAAKGSTFRQYAMGWYRQATGKERELVAAISSGGRTNYPDSVKGRFTISRDNAKNTVYFHMNSQKPVDTAVYYSAARFYFQFRRFRRMDYWGQGTQVTVSS” the “polyreactivity (PSR sort gate)” value was “high polyreactivity”.
